The record followed here is PMC12000434 (2025).

To fix the notation:
B1: FLAG-NDP52^WT [human] / HA-LC3C [human] (parent complex)
chain 1: MEETIKDPPTSAVLLDHCHFSQVIFNSVEKFYIPGGDVTCHYTFTQHFIPRRKDWIGIFRVGWKTTREYYTFMWVTLPIDLNNKSAKQQEVQFKAYYLPKDDEYYQFCYVDEDGVVRGASIPFQFRPENEEDILVVTTQGEVEEIEQHNKELCKENQELKDSCISLQKQNSDMQAELQKKQEELETLQSINKKLELKVKEQKDYWETELLQLKEQNQKMSSENEKMGIRVDQLQAQLSTQEKEMEKLVQGDQDKTEQLEQLKKENDHLFLSLTEQRKDQKKLEQTVEQMKQNETTAMKKQQELMDENFDLSKRLSENEIICNALQRQKERLEGENDLLKRENSRLLSYMGLDFNSLPYQVPTSDEGGARQNPGLAYGNPYSGIQESSSPSPLSIKKCPICKADDICDHTLEQQQMQPLCFNCPICDKIFPATEKQIFEDHVFCHSL
chain 2: MPPPQKIPSVRPFKQRKSLAIRQEEVAGIRAKFPNKIPVVVERYPRETFLPPLDKTKFLVPQELTMTQFLSIIRSRMVLRATEAFYLLVNNKSLVSMSATMAEIYRDYKDEDGFVYMTYASQETFG

The first assay covers variants of B1. The experiment in a line: co-immunoprecipitation (anti-HA beads), Western blot densitometry; lysates of SH-SY5Y cells; three independent experiments; parent: 100; read off a plot. For orientation: A western blot detects proteins with antibodies after separation by electrophoresis.
As for chain 1 MEETIKDPPTSAVLLDHCHFSQVIFNSVEKFYIPGGDVTCHYTFTQHFIPRRKDWIGIFRVGWKTTREYYTFMWVTLPIDLNNKSAKQQEVQFKAYYLPKDDEYYQFCYVDEDGVVRGASIPFQFRPENEEDILVVTTQEEVEEIEQHNKELCKENQELKDSCISLQKQNSDMQAELQKKQEELETLQSINKKLELKVKEQKDYWETELLQLKEQNQKMSSENEKMGIRVDQLQAQLSTQEKEMEKLVQGDQDKTEQLEQLKKENDHLFLSLTEQRKDQKKLEQTVEQMKQNETTAMKKQQELMDENFDLSKRLSENEIICNALQRQKERLEGENDLLKRENSRLLSYMGLDFNSLPYQVPTSDEGGARQNPGLAYGNPYSGIQESSSPSPLSIKKCPICKADDICDHTLEQQQMQPLCFNCPICDKIFPATEKQIFEDHVFCHSL [chain 1 G140E], the percent of parent is ~190 % of WT.

Consider chain 1 MEETIKDPPTSAVLLDHCHFSQVIFNSVEKFYIPGGDVTCHYTFTQHFIPRRKDWIGIFRVGWKTTREYYTFMWVTLPIDLNNKSAKQQEVQFKAYYLPKDDEYYQFCYVDEDGVVRGASIPFQFRPENEEDILVSTTQEEVEEIEQHNKELCKENQELKDSCISLQKQNSDMQAELQKKQEELETLQSINKKLELKVKEQKDYWETELLQLKEQNQKMSSENEKMGIRVDQLQAQLSTQEKEMEKLVQGDQDKTEQLEQLKKENDHLFLSLTEQRKDQKKLEQTVEQMKQNETTAMKKQQELMDENFDLSKRLSENEIICNALQRQKERLEGENDLLKRENSRLLSYMGLDFNSLPYQVPTSDEGGARQNPGLAYGNPYSGIQESSSPSPLSIKKCPICKADDICDHTLEQQQMQPLCFNCPICDKIFPATEKQIFEDHVFCHSL [chain 1 V136S, chain 1 G140E], for which the percent of parent was ~53 % of WT.

For the variant chain 1 MEETIKDPPTSAVLLDHCHFSQVIFNSVEKFYIPGGDVTCHYTFTQHFIPRRKDWIGIFRVGWKTTREYYTFMWVTLPIDLNNKSAKQQEVQFKAYYLPKDDEYYQFCYVDEDGVVRGASIPFQFRPENEEDILVSTTQGEVEEIEQHNKELCKENQELKDSCISLQKQNSDMQAELQKKQEELETLQSINKKLELKVKEQKDYWETELLQLKEQNQKMSSENEKMGIRVDQLQAQLSTQEKEMEKLVQGDQDKTEQLEQLKKENDHLFLSLTEQRKDQKKLEQTVEQMKQNETTAMKKQQELMDENFDLSKRLSENEIICNALQRQKERLEGENDLLKRENSRLLSYMGLDFNSLPYQVPTSDEGGARQNPGLAYGNPYSGIQESSSPSPLSIKKCPICKADDICDHTLEQQQMQPLCFNCPICDKIFPATEKQIFEDHVFCHSL [chain 1 V136S], the percent of parent is ~53 % of WT.

A further assay covers variants of B1. The experiment in a line: co-immunoprecipitation, Western blot densitometry; lysates of SH-SY5Y cells; three independent experiments; blot labelled IP:HA(LC3C); parent: 100; read off a plot.
On to chain 1 MEETIKDPPTSAVLLDHCHFSQVIFNSVEKFYIPGGDVTCHYTFTQHFIPRRKDWIGIFRVGWKTTREYYTFMWVTLPIDLNNKSAKQQEVQFKAYYLPKDDEYYQFCYVDEDGVVRGASIPFQFRPENEEDILVVTTQEEVEEIEQHNKELCKENQELKDSCISLQKQNSDMQAELQKKQEELETLQSINKKLELKVKEQKDYWETELLQLKEQNQKMSSENEKMGIRVDQLQAQLSTQEKEMEKLVQGDQDKTEQLEQLKKENDHLFLSLTEQRKDQKKLEQTVEQMKQNETTAMKKQQELMDENFDLSKRLSENEIICNALQRQKERLEGENDLLKRENSRLLSYMGLDFNSLPYQVPTSDEGGARQNPGLAYGNPYSGIQESSSPSPLSIKKCPICKADDICDHTLEQQQMQPLCFNCPICDKIFPATEKQIFEDHVFCHSL [chain 1 G140E], for which the percent of parent is ~240 % of WT.

chain 1 MEETIKDPPTSAVLLDHCHFSQVIFNSVEKFYIPGGDVTCHYTFTQHFIPRRKDWIGIFRVGWKTTREYYTFMWVTLPIDLNNKSAKQQEVQFKAYYLPKDDEYYQFCYVDEDGVVRGASIPFQFRPENEEDILVVTTQGEVEEIEQHNKELCKENQELKDSCISLQKQNSDMQAELQKKQEELETLQSINKKLELKVKEQKAAAATELLQLKEQNQKMSSENEKMGIRVDQLQAQLSTQEKEMEKLVQGDQDKTEQLEQLKKENDHLFLSLTEQRKDQKKLEQTVEQMKQNETTAMKKQQELMDENFDLSKRLSENEIICNALQRQKERLEGENDLLKRENSRLLSYMGLDFNSLPYQVPTSDEGGARQNPGLAYGNPYSGIQESSSPSPLSIKKCPICKADDICDHTLEQQQMQPLCFNCPICDKIFPATEKQIFEDHVFCHSL [chain 1 D203A, chain 1 Y204A, chain 1 W205A, chain 1 E206A]: the percent of parent is ~130 % of WT.

Take chain 1 MEETIKDPPTSAVLLDHCHFSQVIFNSVEKFYIPGGDVTCHYTFTQHFIPRRKDWIGIFRVGWKTTREYYTFMWVTLPIDLNNKSAKQQEVQFKAYYLPKDDEYYQFCYVDEDGVVRGASIPFQFRPENEEDILVVTTQEEVEEIEQHNKELCKENQELKDSCISLQKQNSDMQAELQKKQEELETLQSINKKLELKVKEQKAAAATELLQLKEQNQKMSSENEKMGIRVDQLQAQLSTQEKEMEKLVQGDQDKTEQLEQLKKENDHLFLSLTEQRKDQKKLEQTVEQMKQNETTAMKKQQELMDENFDLSKRLSENEIICNALQRQKERLEGENDLLKRENSRLLSYMGLDFNSLPYQVPTSDEGGARQNPGLAYGNPYSGIQESSSPSPLSIKKCPICKADDICDHTLEQQQMQPLCFNCPICDKIFPATEKQIFEDHVFCHSL [chain 1 G140E, chain 1 D203A, chain 1 Y204A, chain 1 W205A, chain 1 E206A]: the percent of parent is ~230 % of WT.
